Results reported in the DeepSol protein solubility set.

test: soluble on expression in E. coli; label from the status in PepcDB or PDB records

Row | Sequence | soluble on expression in E. coli
1 | MELKLIPIEKPENLNVILGQAHFIKTVEDLHEALVTAVPGIRFGLAFSEASGKRLVRRSGTDEALVELAVKNLLNLACGHVFLIVLGEGFYPINVLHAVKACPEVVRIYAATANPLKVVVAEEGEQRAILGVMDGFTPLGVEDEAEVAWRKDLLRRLGYKL | soluble
2 | MHLCGVDYYQIDKQGSCKFRFKATQFYRALKNNKVSLRGIKPKDDGTTGQKLQVIPLLEMLISPGVRICDGGKFYNLQYEKAIRSGKMIVALTCKENNKKYVPQSLLSLINQPRKSQSKSLTESHEVIKISKSELNSTSVIEVYDKF | not soluble
3 | MLTPRDENNEGDAMPMLKKPRYSSLSGQSTNITYQEHTISREERAAAVGRHEGFRGCTIWFTGLSGAGKTTISFALERTLNKLGIPCYGLDGDNIRHGLCKNLGFSKEDRQENIRRVAEVAKLFADSGMICLAAFISPFQEDRLDARKIHESENVKFIEVHVSTTLEVCEQRDPKQLYKKARAGQILGFTGIDSAYEPPENAEIILDAGKDGVQQCVQKVLDHLESKGLLPEQIPDVPAVRELFVSDDLTVAELLKESQNLPTVELTKVDLQWLQVLAEGWATPLSGFMRERQYLQSMHFGQLLDLKHKVAFVGEKSDDKEDSWPMMDDINQSIPIVLPISDDVKKGLEGVTRIALKYNGQVYAILSDPEIFEHRKDERVCRQFGTNDPRHPAVAQVLESGNWLLGGDVAVVQKIQFNDGLDKYRKTPNELRAIFAEKNADAVFAFQLRNPIHNGHALLMRDTREKLLAEHKNPILLLHPLGGWTKDDDVPLDIRIKQHEAVIAERVLDPEWTVLSIFPSPMMYAGPTEVQWHARSRIAAGIQHYIVGRDPAGIQKPGSPDALYETTHGAKVLSMAPGLSALHILPFRVAAYDKTAKKMSFFDTSRKEDFENISGTKMRGLARNGDTPPEGFMAPTAWEVLAGYYKSLQNSN | not soluble
4 | NKNFTWTTELTVSRNKNKVEKLPNTVQGFDTRNLTSIQEGYSLYSYWVYNQTGVNSQTGAIEIEDVNKDGKITTADRKIMGSVFPKLFGGFNNKFTYKGIDLGIFFIYSYGNKTWNQNEALGEQGGTLGDNRVLMAGQLDRWTTPGQETMVPKLTAANYQYFEVSRFLEDASFIRLRSLTLGYTLPKKWSSAVKTEKIRFYFTGTNLLLITKYTGSDPESNLGQGNLQGYDYDTPPQPRTIQFGLNLTL | not soluble
5 | EVQLVESGGGLVQPGGSLRLSCAASGFNIKEYYMHWVRQAPGKGLEWVGLIDPEQGNTIYDPKFQDRATISADNSKNTAYLQMNSLRAEDTAVYYCARDTAAYFDYWGQGTLVTVSSASTKGPSVFPLAPSSKSTSGGTAALGCLVKDYFPEPVTVSWNSGALTSGVHTFPAVLQSSGLYSLSSVVTVPSSSLGTQTYICNVNHKPSNTKVDKKVEPKSCDKTHT | soluble
6 | MSLAIRNVVFDVGNVIVKWAPQDIAQLTFGEGEESAFMATAVFKSEFWRDLNKGKYTEAEVKRALHQQLGLSSDTLEQLFFHIKNTQVLLPGTLQLMDDLLKAGYRLYALTDNVNEIVAYLKKQYGFWPKFTGAVVSSECGLLKPDPAIYQHLADSQRILPQESVFMDDMPANVEGARQQGFHAIQFVDAHQARVQLAQMGLHFKGQHFGEGHHHHHH | soluble
7 | MSYDRVKDFDLPELAVHLQPHGAVMIDRKSMFYFRLSGRGAQLAFLLSKNKNLHKTARIWEIMKKEEMSADQLKEELSAHPFTEAWTEGLLDQPLHVSGSLDSYLPISCTLQLTNACNLSCSFCYASSGKPYPEELSSEQWILVMQKLAAHGVADITLTGGEAKLIKGFKELVVVASSLFTNVNVFSNGLNWRDEEVELLSHLGNVSVQISIDGMDNTHDQLRGRKGGFKESMNTIKKLSEANIPVIVAMTINESNADEVSDVVEQCANAGAFIFRAGKTLSVGRATEGFKALDIDFEEMVQIQLREARHKWGDRLNIIDWEHEESSFTTDFCTPGYLAWYIRADGYVTPCQLEDLPLGHILEDSMADIGSPARLLQLKCEAKNCKCIGKIELSEPDLPFQKEVKAGIQE | not soluble
8 | MSSLGASFVQIKFDDLQFFENCGGGSFGSVYRAKWISQDKEVAVKKLLKIEKEAEILSVLSHRNIIQFYGVILEPPNYGIVTEYASLGSLYDYINSNRSEEMDMDHIMTWATDVAKGMHYLHMEAPVKVIHRDLKSRNVVIAADGVLKICDFGASRFHNHTTHMSLVGTFPWMAPEVIQSLPVSETCDTYSYGVVLWEMLTREVPFKGLEGLQVAWLVVEKNERLTIPSSCPRSFAELLHQCWEADAKKRPSFKQIISILESMSNDTSLPDKCNSFLHNKAEWRCEIEATLERLKKLERDLSFKEQELKERERRLKMWEQKLTEQSNTPLLLPLAARMSEESYFESKTEESNSAEMSCQITATSNGEGHGMNPSLQAMMLMGFGDIFSMNKAGAVMHSGMQINMQAKQNSSKTTSKRRGKKVNMALGFSDFDLSEGDDDDDDDGEEEDNDMDNSE | soluble
9 | MGSDKIHHHHHHMADKKRLDQLVLERGLVESREKAKVLILAGKVLVNGERVTKASKLVPEDANVELLEEPKYVSRGGYKLESAFESFKIDVSGKVACDIGASTGGFTDFLLQRGAKKVYAVDVGYGQLHWKLRNDPRVVVMEKVNARYLNPDDLGEKVDVVTCDVSFISLKKIIPAISRILKNIGDAVLLVKPQFEAPRKFVKKGIVKDPGVHLEVLEEIRKSLIENGFVVKGCCFSKIKGTEGNIEYFFWVKKEGENAEIDLRKIVEEAWRFFGERER | not soluble
10 | MKISLGPLLYCWEKQQVIDFYQQVANSQIPLVYLGEAVCSRRRELKWGDYLELAKMLKSAGKDVVLSTLALIEAPSEYTELKRQVDNGEFMIEANDMAAVYLAKEHKQPFVCGASINNYNRASLDILQRLGMQRFVMPVELSKTWLSQVVDKKPSFEVEVLGHGYLPLAHSARCFTARHSQLAKDSCETVCRQYSKGLLAQTQEAQPLLRLNGIQTQSASCVDLRSEISAMVKIGVDVFRVSPSSLACIAKADALVEALNSGAMDAQYPLSDEHCNGYWFGEAGLKSLS | soluble
11 | MSRSRQPPLVTGISPNEGIPWTKVTIRGENLGTGPTDLIGLTICGHNCLLTAEWMSASKIVCRVGQAKNDKGDIIVTTKSGGRGTSTVSFKLLKPEKIG | soluble
12 | GSSGSSGAAFAKILDPAYQVDKGGRVRFVVELADPKLEVKWYKNGQEIRPSTKYIFEHKGCQRILFINNCQMTDDSEYYVTAGDEKCSTELFVRSGPSSG | soluble
13 | MLETRMQTTPLKIGISACLLGAKVRFDGGHKISHFVTNELDRYAEFVSVCPEMGMGLPVPRPTLRLISENERIALVETKDSSRDHTAALESYSQQKVAELQHAELCGYIVCAKSPSCGMERVKVYKHNGTEKDGVGVYTRILMEKMPWLPIEEDGRLNDPVLRENYITRVFCLHDFYTSMGDAPSAKKIVEFHSRYKLTLMAHNPQAYRALGRLVANVKQYPLDSFIQEYRLGLMQALAHRASRKNNTNVLMHLQGYFKRSLNKLQKAELAQVIESYRVGELPLLAPITLLKHYLALFPDAYLAQQRYLNPYPQELKLRYGL | not soluble
14 | MGSDKIHHHHHHMINRKPFFIELELTYKCSQQCIYCHNPPKDLKFYIADKVPKPRSVIEMNELNLSEWISVINQIKRLDEKYEGIMDVVITGGEPLLRSDLEEILSYVTRQKLRHMLLSSGEPISDDRITKLLESGLEKIRINLTSHKYVFNIQSPIMHIKNEVAKKINIAKKFKDFGVKEVGGNIVLTSYYLDFLEEIAELAYKSNLDWIEIHSVIKVGHGYINQKFIVPDPNDERTIQEKLKRLIEIYGENFIQNYVDTDILYSRIPIPTNWGEVGLVIAPNGDIYPSSEATSIPLSKLGNIKNDSLVEIWFNNLLLNKIRSLSFLREPCKSCEVKKLCRGGFRFNAYITKNDLFAPDPSCQIVKDYIGKS | not soluble
